Experimental data taken from the supplement of paper PMC11908140.

B1: library; numbered along this chain (parent)
chain: MRKPRAAVGSGHRKQAASQEGRQKHAKNNSQAKPSACDGLARQPEEVVLQASVSSYHLFRDVAEVTAFRGSLLSWYDQEKRDLPWRRRAEDEMDLDRRAYAVWVSEVMLQQTQVATVINYYTGWMQKWPTLQDLASASLEEVNQLWAGLGYYSRGRRLQEGARKVVEELGGHMPRTAETLQQLLPGVGRYTAGAIASIAFGQATGVVDGNVARVLCRVRAIGADPSSTLVSQQLWGLAQQLVDPARPGDFNQAAMELGATVCTPQRPLCSQCPVESLCRARQRVEQEQLLASGSLSGSPDVEECAPNTGQCHLCLPPSEPWDQTLGVVNFPRKASRKPPREESSATCVLEQPGALGAQILLVQRPNSGLLAGLWEFPSVTWEPSEQLQRKALLQELQRWAGPLPATHLRHLGEVVHTFSHIKLTYQVYGLALEGQTPVTTVPPGARWLTQEEFHTAAVSTAMKKVFRVYQGQQPGTCMGSKRSQVSSPCSRKKPRMGQQVLDNFFRSHISTDAHSLNSAAQ

Variants of: B1
Test: 8OG:A repair function score (normalized; synonymous = 0, nonsense = -1) (normalized log-likelihood score); higher = more repair activity (WT-like)
Settings: with 8OG:A DNA repair reporter (GFP) in HEK-293 MUTYH KO cells
How it was run: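 After 72 h, viable mCherry+ cells were split into GFP+ (repair) and GFP− bins in three replicates per tile. These cells were MUTYH knockout HEK-293 cells holding lentiviral MUTYH cDNA NNN codon-scan libraries, kept in 10 pg/ml doxycycline and co-transfected with mCherry plus an 8OG:A GFP repair reporter. Sequencing of tile amplicons gave per-tile Rosace fitness scores, normalized into a repair function score anchored on synonymous and nonsense distributions. Synonymous medians were fixed at 0, nonsense at -1, and variants under 300 counts per million at the start were removed.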
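Note: cells sorted at 72 h after reporter transfection.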

Variant | 8OG:A repair function score
MRKPRAAVGSGHRKQAASQEGRQKHAKNNSQAKPSACDGLARQPEEVVLQASVSSYHLFRDVAEVTAFRGSLLSWYDQEKRDLPWRRRAEDEMDLDRRAYAVWVSEVMLQQTQVATVINYYTGWMQKWPTLQDLASASLEEVNQLWAGLGYYSRGRRLQEGARKVVEELGGHMPRTAETLQQLLPGVGRYTAGAIASIAFGQATGVVDGNVARVLCRVRAIGADPSSTLVSQQLWGLAQQLVDPARPGDFNQAAMELGATVCTPQRPLCSQCPVESLCRARQRVEQEQLLASGSLSGSPDVEECAPNTGQCHLCLPPSEPWDQTLGVVNFPRKASRKPPREESSATCVLEQPGALGAQILLVQRPNSGLLAGLWEFPSVTWEPSEQLQRKALLQELQRWAGPLPATHLRHLGEVVHTFSHIKLTYQVYGLALEGQTPVTTVPPGARWLTQEEFHTAAVSTAMWKVFRVYQGQQPGTCMGSKRSQVSSPCSRKKPRMGQQVLDNFFRSHISTDAHSLNSAAQ [K463W] | -0.075
MRKPRAAVGSGHRKQAASQEGRQKHAKNNSQAKPSACDGLARQPEEVVLQASVSSYHLFRDVAEVTAFRGSLLSWYDQEKRDLPWRRRAEDEMDLDRRAYAVWVSEVMLQQTQVATVINYYTGWMQKWPTLQDLASASLEEVNQLWAGLGYYSRGRRLQEGARKVVEELGGHMPRTAETLQQLLPGVGRYTAGAIASIAFGQATGVVDGNVARVLCRVRAIGADPSSTLVSQQLWGLAQQLVDPARPGDFNQAAMELGATVCTPQRPLCSQCPVESLCRARQRVEQEQLLASGSLSGSPDVEECAPNTGQCHLCLPPSEPWDQTLGVVNFPRKASRKPPREESSATCVLEQPGALGAQILLVQRPNSGLLAGLWEFPSVTWEPSEQLQRKALLQELQRWAGPLPATHLRHLGEVVHTFSHIKLTYQVYGLALEGQTPVTTVPPGARWLTQEEFHTAAVSTAMVKVFRVYQGQQPGTCMGSKRSQVSSPCSRKKPRMGQQVLDNFFRSHISTDAHSLNSAAQ [K463V] | -0.129
MRKPRAAVGSGHRKQAASQEGRQKHAKNNSQAKPSACDGLARQPEEVVLQASVSSYHLFRDVAEVTAFRGSLLSWYDQEKRDLPWRRRAEDEMDLDRRAYAVWVSEVMLQQTQVATVINYYTGWMQKWPTLQDLASASLEEVNQLWAGLGYYSRGRRLQEGARKVVEELGGHMPRTAETLQQLLPGVGRYTAGAIASIAFGQATGVVDGNVARVLCRVRAIGADPSSTLVSQQLWGLAQQLVDPARPGDFNQAAMELGATVCTPQRPLCSQCPVESLCRARQRVEQEQLLASGSLSGSPDVEECAPNTGQCHLCLPPSEPWDQTLGVVNFPRKASRKPPREESSATCVLEQPGALGAQILLVQRPNSGLLAGLWEFPSVTWEPSEQLQRKALLQELQRWAGPLPATHLRHLGEVVHTFSHIKLTYQVYGLALEGQTPVTTVPPGARWLTQEEFHTAAVSTAMTKVFRVYQGQQPGTCMGSKRSQVSSPCSRKKPRMGQQVLDNFFRSHISTDAHSLNSAAQ [K463T] | -0.141
MRKPRAAVGSGHRKQAASQEGRQKHAKNNSQAKPSACDGLARQPEEVVLQASVSSYHLFRDVAEVTAFRGSLLSWYDQEKRDLPWRRRAEDEMDLDRRAYAVWVSEVMLQQTQVATVINYYTGWMQKWPTLQDLASASLEEVNQLWAGLGYYSRGRRLQEGARKVVEELGGHMPRTAETLQQLLPGVGRYTAGAIASIAFGQATGVVDGNVARVLCRVRAIGADPSSTLVSQQLWGLAQQLVDPARPGDFNQAAMELGATVCTPQRPLCSQCPVESLCRARQRVEQEQLLASGSLSGSPDVEECAPNTGQCHLCLPPSEPWDQTLGVVNFPRKASRKPPREESSATCVLEQPGALGAQILLVQRPNSGLLAGLWEFPSVTWEPSEQLQRKALLQELQRWAGPLPATHLRHLGEVVHTFSHIKLTYQVYGLALEGQTPVTTVPPGARWLTQEEFHTAAVSTAMYKVFRVYQGQQPGTCMGSKRSQVSSPCSRKKPRMGQQVLDNFFRSHISTDAHSLNSAAQ [K463Y] | -0.191
MRKPRAAVGSGHRKQAASQEGRQKHAKNNSQAKPSACDGLARQPEEVVLQASVSSYHLFRDVAEVTAFRGSLLSWYDQEKRDLPWRRRAEDEMDLDRRAYAVWVSEVMLQQTQVATVINYYTGWMQKWPTLQDLASASLEEVNQLWAGLGYYSRGRRLQEGARKVVEELGGHMPRTAETLQQLLPGVGRYTAGAIASIAFGQATGVVDGNVARVLCRVRAIGADPSSTLVSQQLWGLAQQLVDPARPGDFNQAAMELGATVCTPQRPLCSQCPVESLCRARQRVEQEQLLASGSLSGSPDVEECAPNTGQCHLCLPPSEPWDQTLGVVNFPRKASRKPPREESSATCVLEQPGALGAQILLVQRPNSGLLAGLWEFPSVTWEPSEQLQRKALLQELQRWAGPLPATHLRHLGEVVHTFSHIKLTYQVYGLALEGQTPVTTVPPGARWLTQEEFHTAAVSTAMKAVFRVYQGQQPGTCMGSKRSQVSSPCSRKKPRMGQQVLDNFFRSHISTDAHSLNSAAQ [K464A] | -0.184
MRKPRAAVGSGHRKQAASQEGRQKHAKNNSQAKPSACDGLARQPEEVVLQASVSSYHLFRDVAEVTAFRGSLLSWYDQEKRDLPWRRRAEDEMDLDRRAYAVWVSEVMLQQTQVATVINYYTGWMQKWPTLQDLASASLEEVNQLWAGLGYYSRGRRLQEGARKVVEELGGHMPRTAETLQQLLPGVGRYTAGAIASIAFGQATGVVDGNVARVLCRVRAIGADPSSTLVSQQLWGLAQQLVDPARPGDFNQAAMELGATVCTPQRPLCSQCPVESLCRARQRVEQEQLLASGSLSGSPDVEECAPNTGQCHLCLPPSEPWDQTLGVVNFPRKASRKPPREESSATCVLEQPGALGAQILLVQRPNSGLLAGLWEFPSVTWEPSEQLQRKALLQELQRWAGPLPATHLRHLGEVVHTFSHIKLTYQVYGLALEGQTPVTTVPPGARWLTQEEFHTAAVSTAMKHVFRVYQGQQPGTCMGSKRSQVSSPCSRKKPRMGQQVLDNFFRSHISTDAHSLNSAAQ [K464H] | -0.313
MRKPRAAVGSGHRKQAASQEGRQKHAKNNSQAKPSACDGLARQPEEVVLQASVSSYHLFRDVAEVTAFRGSLLSWYDQEKRDLPWRRRAEDEMDLDRRAYAVWVSEVMLQQTQVATVINYYTGWMQKWPTLQDLASASLEEVNQLWAGLGYYSRGRRLQEGARKVVEELGGHMPRTAETLQQLLPGVGRYTAGAIASIAFGQATGVVDGNVARVLCRVRAIGADPSSTLVSQQLWGLAQQLVDPARPGDFNQAAMELGATVCTPQRPLCSQCPVESLCRARQRVEQEQLLASGSLSGSPDVEECAPNTGQCHLCLPPSEPWDQTLGVVNFPRKASRKPPREESSATCVLEQPGALGAQILLVQRPNSGLLAGLWEFPSVTWEPSEQLQRKALLQELQRWAGPLPATHLRHLGEVVHTFSHIKLTYQVYGLALEGQTPVTTVPPGARWLTQEEFHTAAVSTAMKGVFRVYQGQQPGTCMGSKRSQVSSPCSRKKPRMGQQVLDNFFRSHISTDAHSLNSAAQ [K464G] | -0.315
MRKPRAAVGSGHRKQAASQEGRQKHAKNNSQAKPSACDGLARQPEEVVLQASVSSYHLFRDVAEVTAFRGSLLSWYDQEKRDLPWRRRAEDEMDLDRRAYAVWVSEVMLQQTQVATVINYYTGWMQKWPTLQDLASASLEEVNQLWAGLGYYSRGRRLQEGARKVVEELGGHMPRTAETLQQLLPGVGRYTAGAIASIAFGQATGVVDGNVARVLCRVRAIGADPSSTLVSQQLWGLAQQLVDPARPGDFNQAAMELGATVCTPQRPLCSQCPVESLCRARQRVEQEQLLASGSLSGSPDVEECAPNTGQCHLCLPPSEPWDQTLGVVNFPRKASRKPPREESSATCVLEQPGALGAQILLVQRPNSGLLAGLWEFPSVTWEPSEQLQRKALLQELQRWAGPLPATHLRHLGEVVHTFSHIKLTYQVYGLALEGQTPVTTVPPGARWLTQEEFHTAAVSTAMKEVFRVYQGQQPGTCMGSKRSQVSSPCSRKKPRMGQQVLDNFFRSHISTDAHSLNSAAQ [K464E] | -0.152
MRKPRAAVGSGHRKQAASQEGRQKHAKNNSQAKPSACDGLARQPEEVVLQASVSSYHLFRDVAEVTAFRGSLLSWYDQEKRDLPWRRRAEDEMDLDRRAYAVWVSEVMLQQTQVATVINYYTGWMQKWPTLQDLASASLEEVNQLWAGLGYYSRGRRLQEGARKVVEELGGHMPRTAETLQQLLPGVGRYTAGAIASIAFGQATGVVDGNVARVLCRVRAIGADPSSTLVSQQLWGLAQQLVDPARPGDFNQAAMELGATVCTPQRPLCSQCPVESLCRARQRVEQEQLLASGSLSGSPDVEECAPNTGQCHLCLPPSEPWDQTLGVVNFPRKASRKPPREESSATCVLEQPGALGAQILLVQRPNSGLLAGLWEFPSVTWEPSEQLQRKALLQELQRWAGPLPATHLRHLGEVVHTFSHIKLTYQVYGLALEGQTPVTTVPPGARWLTQEEFHTAAVSTAMKIVFRVYQGQQPGTCMGSKRSQVSSPCSRKKPRMGQQVLDNFFRSHISTDAHSLNSAAQ [K464I] | -0.441
MRKPRAAVGSGHRKQAASQEGRQKHAKNNSQAKPSACDGLARQPEEVVLQASVSSYHLFRDVAEVTAFRGSLLSWYDQEKRDLPWRRRAEDEMDLDRRAYAVWVSEVMLQQTQVATVINYYTGWMQKWPTLQDLASASLEEVNQLWAGLGYYSRGRRLQEGARKVVEELGGHMPRTAETLQQLLPGVGRYTAGAIASIAFGQATGVVDGNVARVLCRVRAIGADPSSTLVSQQLWGLAQQLVDPARPGDFNQAAMELGATVCTPQRPLCSQCPVESLCRARQRVEQEQLLASGSLSGSPDVEECAPNTGQCHLCLPPSEPWDQTLGVVNFPRKASRKPPREESSATCVLEQPGALGAQILLVQRPNSGLLAGLWEFPSVTWEPSEQLQRKALLQELQRWAGPLPATHLRHLGEVVHTFSHIKLTYQVYGLALEGQTPVTTVPPGARWLTQEEFHTAAVSTAMKDVFRVYQGQQPGTCMGSKRSQVSSPCSRKKPRMGQQVLDNFFRSHISTDAHSLNSAAQ [K464D] | -0.393
MRKPRAAVGSGHRKQAASQEGRQKHAKNNSQAKPSACDGLARQPEEVVLQASVSSYHLFRDVAEVTAFRGSLLSWYDQEKRDLPWRRRAEDEMDLDRRAYAVWVSEVMLQQTQVATVINYYTGWMQKWPTLQDLASASLEEVNQLWAGLGYYSRGRRLQEGARKVVEELGGHMPRTAETLQQLLPGVGRYTAGAIASIAFGQATGVVDGNVARVLCRVRAIGADPSSTLVSQQLWGLAQQLVDPARPGDFNQAAMELGATVCTPQRPLCSQCPVESLCRARQRVEQEQLLASGSLSGSPDVEECAPNTGQCHLCLPPSEPWDQTLGVVNFPRKASRKPPREESSATCVLEQPGALGAQILLVQRPNSGLLAGLWEFPSVTWEPSEQLQRKALLQELQRWAGPLPATHLRHLGEVVHTFSHIKLTYQVYGLALEGQTPVTTVPPGARWLTQEEFHTAAVSTAMKCVFRVYQGQQPGTCMGSKRSQVSSPCSRKKPRMGQQVLDNFFRSHISTDAHSLNSAAQ [K464C] | -0.49
MRKPRAAVGSGHRKQAASQEGRQKHAKNNSQAKPSACDGLARQPEEVVLQASVSSYHLFRDVAEVTAFRGSLLSWYDQEKRDLPWRRRAEDEMDLDRRAYAVWVSEVMLQQTQVATVINYYTGWMQKWPTLQDLASASLEEVNQLWAGLGYYSRGRRLQEGARKVVEELGGHMPRTAETLQQLLPGVGRYTAGAIASIAFGQATGVVDGNVARVLCRVRAIGADPSSTLVSQQLWGLAQQLVDPARPGDFNQAAMELGATVCTPQRPLCSQCPVESLCRARQRVEQEQLLASGSLSGSPDVEECAPNTGQCHLCLPPSEPWDQTLGVVNFPRKASRKPPREESSATCVLEQPGALGAQILLVQRPNSGLLAGLWEFPSVTWEPSEQLQRKALLQELQRWAGPLPATHLRHLGEVVHTFSHIKLTYQVYGLALEGQTPVTTVPPGARWLTQEEFHTAAVSTAMKFVFRVYQGQQPGTCMGSKRSQVSSPCSRKKPRMGQQVLDNFFRSHISTDAHSLNSAAQ [K464F] | -0.702
